Experimental data reported in the nanobody polyreactivity screen of Harvey et al. (2022).

Assay: yeast display, Sf9 membrane polyspecificity reagent, FACS + sequencing; frameworks hold sequencing errors
Method in brief: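 A synthetic nanobody library was expressed on Saccharomyces cerevisiae BJ5465 by galactose induction for 36–48 hours. The library was stained for 1 hour at 4 °C with 10% biotinylated, detergent-solubilized Sf9 membrane reagent and enriched with streptavidin microbeads before FACS. Low and high (top ~1%) gates were set on anti-HA fluorescence for expression and streptavidin fluorescence for reagent binding, and each polyreactivity label reflects the gate of origin.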

Sequence	polyreactivity (PSR sort gate)
QVQLVESGGGLVEAGGSLRLSCAATGRTIRAYAMGWYRPEPGKERELVASISSGGSTKYADSVKGRFTISRDNAKNTVYLQMNSLKPEDTAVYFCAADRLLYGVDYWGQGTEVTVSS	low polyreactivity
QVQLVESGVGLVQAGGSLSLSCAASGSTFTRYAMGWYRQAPGKERELVASISRSGNTYYADSVKGRFTISRDNAKNTVYLQMNSLKPEDSAVYYCAAKRKSYYSYNFDYWGQGTQVTVSS	high polyreactivity
QVQLVESGGGLVQAGGSLRLSCAASGFTFRFYAMGWYRQAPGKERELVATISSRGGRTYYADSVKGRFTISRDNAKNTVYLQLNSLKPEDTAVYYCAADQKSQYQGNYWGQGTQVTVSS	high polyreactivity
QVQLVESGGGLVQAGGSLRLSCAASGYIFKTYDMGWYRQAPGKETELVAAITASGGSTSYADSVKGRFTISRDNAKNTVYLQMNSLKPEDTAVYYCAAVYVRFKAERGVYLYPYDYWGQGTQVTVSS	high polyreactivity
QVQLVESGGGLVQAGGSLRLSCAASGFTLTLYAMGCYRQSPGKERELVAAISGNGGRTYYADSVKGRFTISRDNAKNTVYLQMNSLKPEDTAVYYCAARYTRSPSDYSTRKFGYGYWGQGTQVTVSS	high polyreactivity
QVQRVESGGGLVQAGGSLRISCAASGSTFITYAMGWYRQERGKERELVAASRWSGGGTYYADSVKGRFTISRDNAKNTVYVQMNSLKPEDTAVYYCAADHFNYTTGRDYWGQGTQVTVSS	low polyreactivity
QVQLVESGGGLVQPGGSLRLSCAASGSNFEPYAMGWYRQAPGKERELVAAISSGGSTNYADSVKGRFTISRDNAKNTVYLQMNSLKPEDTAVYFCAAAYYTVGWLFYDYWYPFAYYYWGQGTQVTVSS	low polyreactivity
QVQLVESGGGLVQAGGSLRLSCADSGLIFKSYAMGWYRQARGKERELVAAISGNDGSTYYADSVKGRFTISRDNAKNTVYLQMNSLKPEDTAVYYCAADFSGPWYEYTFNYCGQGTQVTVSS	high polyreactivity
QVQLVESGGGLVQAGGSLRLSCAASGIIFQKYAMGWYRQEPGKERELVDAITRRGGSTYYADSVKGRFTISRDNAKNTVYLQMNSLKPEDTAVYYCAVQLRRHVDMDYWGQGTQVTVSS	high polyreactivity
QVQLVESGGGLVHAGGSLRLSCAASGRIFHFNAMGWYRPAPGIERELVATITKRGGRTYYADSVKGRFTISRDNAKNTVYLQMNSLKPEDTAVYYCNADQSRYSAVSGYDYWGQGTQVTVSS	high polyreactivity
QVQLVESGGGLVQAGGSLRLSCAASGSIFSYYAMGWYRQAPGKERELVAAISYSGSDTYYADSVKGRFTISRDNAKNTVSFQMNSLKPEDTAVYYCAAEDPSYSYHYWGQGTQVTVSS	low polyreactivity
QVQLVESGGGLVQAGGSLRLSCAASGSTFKYYAMGWYRPAPGKERELVAAISGRGGRTYYADSVKGRFTISRDNAKNTVYLQMNSLKPEDTAVYYCNAPFLGAHHYGYEYWGQRTQVTVSS	high polyreactivity
QVQLVESGGGLVQAGGSLRLSCAASGFTFYYYAMGWYRQAPGKERELVAAINWDGRTYYADSVKGRFTISRDNAKNTVYLQMNTLKPEDTAVYYCAAGYYLLTYRYDYWGQGTQVTVSS	low polyreactivity
QVQLQESGGGLVQAGGSLRLSCAASGSISNLIAKGWYRQAQGKEREFVAAIGPGANTNYADSVKGRFTISRDNANNTVSLQMNSLKPDDTAVFYCAVDYYGVAVYHYWGQGTQVTVSS	high polyreactivity
QVQLVESGGGLVQAGGSLRLSCAASGSIFRSYAMGWYRQAPGKERELVAAISRRGGSTYYADSVKGRFTISRDNAKNTVYLQMNSLKPADTAVYYCAADRTGPYDYWGQGTQVTVSS	high polyreactivity
QDQHVESGGGLVQAGGSLRLSCAASGSTFAFYAMGWYRQAPGKERELVAAINYGGTSTYYADSVKGRFTISRDNAKNTVYLQMNSLKPEDTAVYYCAARRPTSPRRYESWGQGTQVTVSS	high polyreactivity
QVQLVESGGGLVQAGGSLRLSCAASGFTFTRYAMGWYRQAPGKERELVAAISSSGGSTYYADSVKGRFTISRDNAKNTVYLQMNSLKPEDTAVYYCNKNWPRLYYYWGQGTQVTVSS	high polyreactivity
QVQLVESGGGLVQAGGSLRLSCAASGYIFGSYVMGWYRQAPGKERELVAAITRIGASTYFADSVKGRFTISRDNAKNTVYLQMNSLKPDDTAVFYCATDQGGYYENDYWGQGTQVTVSS	low polyreactivity
QVQLVESGGGLVQAGGSLRLSCAASGRTFRTYTMGWYRQAHGKERELVAAITSTGSTYYADSVKGRFTISRDNAMNTVYLQMNSLKPEDTAVYYCNVGRRLRPYRCTRPNLEYYYWGQGTQVTVSS	high polyreactivity
QVQLVESGGGLVQAGGSLRLSCAASGSIYYNAMGWYRQAPGKERELVAAISTSGGTTYYADSVKGRFTISRDNAKNTVYLQMISQKPEDTAVYYCNARPSRRGAFDYWGQGTQVTVSS	high polyreactivity
QVQLVESGGGLVQAGGSLRLSCAASGLTFQLYGMGWYRQAPGKERELVAAISGSGGRTYYADSVKGRFTISRDNAKNTVYLQMNSLKPEDTAVYYCAARPGSGRSYTSDYWGQGTQVNVSS	high polyreactivity
QVQLQESGGGLMQAGGSQRLSCAASGSISYYSDMGWYRQAPGKEREFVAGIGYGTTTNYADSVKGRFTTSRDNAKNTVYLQMISMKTEDTAVYYCAAYQGNGYEFYYWGQGTQVTVRS	low polyreactivity
QVQLVESGGGLVQAGGSLRLSCAASGYTIIQYAMGWYRQAPGKERELVAGMTWSGGSKYADSVKGRFTISRDNAKNTVYLQMNSLNPEDTAVYYCAAVPYSYTYVYLRHYDYWGQGTQVSVSS	low polyreactivity
QVQLVESGGGLVQAGGSLRLSCAASGGTFWYYAMGWYRQAPGKERELVASISRGGSTNYADSVKGRFTISRDNAKNTVYLLMNSLKPEDTAVYYCNAGLRVGPRRYVDYEYDYWGQGTQVTVSS	low polyreactivity
QVQLVESGGGLVQAGGSLRLTCAASGYTFRRYAMGWYRQAPGKERELVAAITRDDSTNYADSVKGRFTISRDNGKNTVYLQMNSLKPEDTAVYYCAAAVGLRRYSPLHLLYYYWGQGTQVTVSS	high polyreactivity
QVQLVESGGGFVQAGGSLRLSCAASGRTFSYYAMGCYRQAPGKERELVASISGGGRTNYADSVKGRFTISRDNAKNTVYLQMNSLKAEDTAVYYCAARYEVRHTLYNYWGQGTQVTVSS	high polyreactivity
QVQLVESGGGLVQAGGSLRLSCAASGSTFYPYAMGWYRQAPGKEREFVARISVSAGRTYYADSVKGRFTISRDNAKNTVYLQMNSLKPEDTAVYYCAKGIPTFYGSPRYDYWGQGTQVTVSS	low polyreactivity
QVQLVESGGGLVQAGGSLRLSCAASGSIFWGYEMGSYRQAPGKERELVAAINRGGSTYYADSVKGRFTRSRDNAKNTVYLQMNSLKPEDTAVYYCAAGYPSWYYGYPYDSWGQGTQVTVSS	low polyreactivity
QVQLVESGGGLVQAGGSLRLSCAASGRICDYNVMGWYRQAPGKERELVADITSSGGSTYYADSVKGRFTISRDNAKNTVYLQMNSLKPEDTAVYYCYISYFTFYDDFYYWGQGTQVTVSS	low polyreactivity
HVQLVESGGGLVQAGGSLRLSCAASGRIFGAYAMGWYRQAPGKEREFVAAITSRGGNTYYADSVKGRFTISRDNAKNTVYLQMNSLIPEDTAVYYCAARHDKRRQYYVGQSAFDYWGQGTQVTVSS	low polyreactivity
